{
  "source": "paper PMC2174230",
  "about": "(The Journal of Cell Biology, 1999)",
  "binders": {"B1": {"name": "His6-Toa1p/Toa2p complex (recombinant TFIIA) (complex)", "chain 1": "MSNAEASRVYEIIVESVVNEVREDFENAGIDEQTLQDLKNIWQKKLTETKVTTFSWDNQFNEGNINGVQNDLNFNLATPGVNSSEFNIKEENTGNEGLILPNINSNNNIPHSGETNINTNTVEATNNSGATLNTNTSGNTNADVTSQPKIEVKPEIELTINNANITTVENIDDESEKKDDEEKEEDVEKTRKEKEQIEQVKLQAKKEKRSALLDTDEVGSELDDSDDDYLISEGEEDGPDENLMLCLYDKVTRTKARWKCSLKDGVVTINRNDYTFQKAQVEAEWV", "chain 2": "MAVPGYYELYRRSTIGNSLVDALDTLISDGRIEASLAMRVLETFDKVVAETLKDNTQSKLTVKGNLDTYGFCDDVWTFIVKNCQVTVEDSHRDASQNGSGDSQSVISVDKLRIVACNSKKSE"}},
  "target": "T1, GST-Kap122p (S. cerevisiae, UniProt P32767 1-1081)",
  "T1 sequence": "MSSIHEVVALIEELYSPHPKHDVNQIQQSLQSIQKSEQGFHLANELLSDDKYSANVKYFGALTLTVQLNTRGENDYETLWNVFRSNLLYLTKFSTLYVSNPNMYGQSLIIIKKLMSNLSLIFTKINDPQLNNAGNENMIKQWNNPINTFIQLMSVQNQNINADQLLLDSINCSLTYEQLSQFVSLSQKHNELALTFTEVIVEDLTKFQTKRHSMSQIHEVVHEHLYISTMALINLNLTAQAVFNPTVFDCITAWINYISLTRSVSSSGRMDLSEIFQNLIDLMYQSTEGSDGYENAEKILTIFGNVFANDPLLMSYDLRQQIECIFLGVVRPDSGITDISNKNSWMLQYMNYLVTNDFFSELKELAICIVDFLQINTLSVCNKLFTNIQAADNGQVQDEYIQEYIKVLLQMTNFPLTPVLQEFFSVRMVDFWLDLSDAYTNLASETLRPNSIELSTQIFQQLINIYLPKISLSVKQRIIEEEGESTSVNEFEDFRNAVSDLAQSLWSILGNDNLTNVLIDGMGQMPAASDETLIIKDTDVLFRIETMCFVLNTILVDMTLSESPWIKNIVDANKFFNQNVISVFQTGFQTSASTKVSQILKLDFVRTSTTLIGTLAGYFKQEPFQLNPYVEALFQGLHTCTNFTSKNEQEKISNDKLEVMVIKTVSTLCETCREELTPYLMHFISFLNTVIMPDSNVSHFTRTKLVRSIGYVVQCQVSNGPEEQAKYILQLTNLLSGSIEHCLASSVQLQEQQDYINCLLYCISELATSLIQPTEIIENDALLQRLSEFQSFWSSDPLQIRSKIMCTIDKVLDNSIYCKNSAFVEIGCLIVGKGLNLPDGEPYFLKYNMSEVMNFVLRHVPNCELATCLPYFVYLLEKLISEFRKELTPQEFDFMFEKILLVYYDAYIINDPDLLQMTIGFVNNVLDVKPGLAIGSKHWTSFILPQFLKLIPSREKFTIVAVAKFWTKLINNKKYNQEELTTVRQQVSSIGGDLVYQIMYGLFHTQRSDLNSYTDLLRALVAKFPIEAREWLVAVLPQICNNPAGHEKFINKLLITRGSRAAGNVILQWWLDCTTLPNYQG",
  "assay": "pull-down",
  "data": [
    {"binder": "B1", "values": [
      {"measurement": "binding result", "result": "binds"}
    ]}
  ]
}
